Measurements taken from patent US20250340631A1 (HARBOUR BIOMED SHANGHAI, published 2025).

B1: PR004953 (antibody, V domains shown)
VH: EVQLVESGGGVVQPGRSLRLSCAASGFTFSSYGMHWVRQAPGKGLEWVAVIGYDGRNKYYADSVKGRFTISRDNSKNTLFLQMDNLRAEDTALYYCARHFPSLPGTTDTFDIRGPGTMVTVSS
notes: anti-CLDN18.2 HCAb: VH fused to human IgG1 Fc, no light chain; also called R1029P024B07
B2: PR004533 (antibody, V domains shown)
VH: EVQLVESGGGLVQPGGSLRLSCAASGFTFSSYWMHWVRQVPGKGLVWVSRINSDGSRTIYADSVKGRFTISRDNAKNTLYLQMNSLRAEDTAVYYCARGEDHDILTGYPIRGQGTTVTVSS
notes: anti-CLDN18.2 HCAb: VH fused to human IgG1 Fc, no light chain; also called R1029P021E10
B3: PR007246 (antibody, human IgG1, V domains shown)
VH: EVQLVESGGGLVQPGGSLRLSCAASGFTFSSYWMHWVRQVPGKGLVWVSRISSTGSRTIYADSVKGRFTISRDNAKNTLYLQMNSLRAEDTAVYYCARGEDHDILTGYPIRGQGTTVTVSS
notes: HCDR2 PTM-removal mutant of PR004533; HCAb, human IgG1 Fc; also called 4533_M3F10
B4: PR004949 (antibody, V domains shown)
VH: EVQLVESGGGLVQPGGSLRLSCAASGFTFSAYWMHWVRQVPGRGLVWVSRINSDGSRTIYADSVKGRFTISRDNAKNTLYLQMNSLRAEDTAVYLCARGEDHDMLTGYPVRGQGTMVTVSS
notes: anti-CLDN18.2 HCAb: VH fused to human IgG1 Fc, no light chain; also called R1029P021C02
B5: PR007242 (antibody, human IgG1, V domains shown)
VH: EVQLVESGGGLVQPGGSLRLSCAASGFTFSSYWMHWVRQVPGKGLVWVSRINFDSSRTIYADSVKGRFTISRDNAKNTLYLQMNSLRAEDTAVYYCARGEDHDILTGYPIRGQGTTVTVSS
notes: HCDR2 PTM-removal mutant of PR004533; HCAb, human IgG1 Fc; also called 4533_M10E1
B6: PR007243 (antibody, human IgG1, V domains shown)
VH: EVQLVESGGGLVQPGGSLRLSCAASGFTFSSYWMHWVRQVPGKGLVWVSRISSAGSRTIYADSVKGRFTISRDNAKNTLYLQMNSLRAEDTAVYYCARGEDHDILTGYPIRGQGTTVTVSS
notes: HCDR2 PTM-removal mutant of PR004533; HCAb, human IgG1 Fc; also called 4533_M3D9
B7: PR007244 (antibody, human IgG1, V domains shown)
VH: EVQLVESGGGLVQPGGSLRLSCAASGFTFSSYWMHWVRQVPGKGLVWVSRIDSRGSRTIYADSVKGRFTISRDNAKNTLYLQMNSLRAEDTAVYYCARGEDHDILTGYPIRGQGTTVTVSS
notes: HCDR2 PTM-removal mutant of PR004533; HCAb, human IgG1 Fc; also called 4533_M4H6
B8: PR007245 (antibody, human IgG1, V domains shown)
VH: EVQLVESGGGLVQPGGSLRLSCAASGFTFSSYWMHWVRQVPGKGLVWVSRISSDASRTIYADSVKGRFTISRDNAKNTLYLQMNSLRAEDTAVYYCARGEDHDILTGYPIRGQGTTVTVSS
notes: HCDR2 PTM-removal mutant of PR004533; HCAb, human IgG1 Fc; also called 4533_M6E6
B9: PR007248 (antibody, human IgG1, V domains shown)
VH: EVQLVESGGGLVQPGGSLRLSCAASGFTFSSYWMHWVRQVPGKGLVWVSRINHDSSRTIYADSVKGRFTISRDNAKNTLYLQMNSLRAEDTAVYYCARGEDHDILTGYPIRGQGTTVTVSS
notes: HCDR2 PTM-removal mutant of PR004533; HCAb, human IgG1 Fc; also called 4533_M10E7
B10: PR004540 (antibody, V domains shown)
VH: EVQLVESGGGLVQPGGSLRLSCAASGFTFSIYWMHWVRQVPGKGLVLVSRISSDGNYTSYADSVKGRFTISRDNAKNTLYLQMNSLRAEDTAVYLCARGEDHDMLTGYPVRGQGTTVTVSS
notes: anti-CLDN18.2 HCAb: VH fused to human IgG1 Fc, no light chain; also called R1029P037B07
B11: PR002199 (bispecific antibody)
chain 1: not shown
chain 2: EVQLVESGGGLVQPGRSLRLSCAASGFTFDDYAMHWVRQAPGKGLEWVSGISWNSGSIGYADSVKGRFTISRDNAKNSLYLQMNSLRAEDTALYYCAKDSRGYGDYRLGGAYWGQGTLVTVSSASTKGPSVFPLAPSSKSTSGGTAALGCLVKDYFPEPVTVSWNSGALTSGVHTFPAVLQSSGLYSLSSVVTVPSSSLGTQTYICNVNHKPSNTKVDKKVEPKSCDKTHTCPPCPAPEAAGGPSVFLFPPKPKDTLMISRTPEVTCVVVDVSHEDPEVKFNWYVDGVEVHNAKTKPREEQYNSTYRVVSVLTVLHQDWLNGKEYKCKVSNKALGAPIEKTISKAKGQPREPQVYTLPPCREEMTKNQVSLWCLVKGFYPSDIAVEWESNGQPENNYKTTPPVLDSDGSFFLYSKLTVDKSRWQQGNVFSCSVMHEALHNHYTQKSLSLSPGK
chain 3: EVQLLESGGGLVQPGGSLRLSCAASGFTVSSYGMSWVRQAPGKGPEWVSGIRGSDGSTYYADSVKGRFTISRDNSKNTLYLQMNSLRAEDTAVYYCAKQGENDGPFDHRGQGTLVTVSSGGGGSEVQLLESGGGLVQPGGSLRLSCAASGFTVSSYGMSWVRQAPGKGPEWVSGIRGSDGSTYYADSVKGRFTISRDNSKNTLYLQMNSLRAEDTAVYYCAKQGENDGPFDHRGQGTLVTVSSASEPKSSDKTHTCPPCPAPEAAGGPSVFLFPPKPKDTLMISRTPEVTCVVVDVSHEDPEVKFNWYVDGVEVHNAKTKPREEQYNSTYRVVSVLTVLHQDWLNGKEYKCKVSNKALGAPIEKTISKAKGQPREPQVCTLPPSREEMTKNQVSLSCAVKGFYPSDIAVEWESNGQPENNYKTTPPVLDSDGSFFLVSKLTVDKSRWQQGNVFSCSVMHEALHNHYTQKSLSLSPGK
B12: PR004536 (antibody, V domains shown)
VH: EVQLVESGGGLVQPGGSLRLSCAASGFTFSSYWMYWVRQVPGKGLVWVSHINSDGSTTQYADSVKGRFTISRDNAKNMLYLQMNSLRAEDTAVYYCARDFPVLGGSHFDFQHWGQGTLVTVSS
notes: anti-CLDN18.2 HCAb: VH fused to human IgG1 Fc, no light chain; also called R1029P028A11
B13: PR007247 (antibody, human IgG1, V domains shown)
VH: EVQLVESGGGLVQPGGSLRLSCAASGFTFSSYWMYWVRQVPGKGLVWVSHINPLGSTTQYADSVKGRFTISRDNAKNMLYLQMNSLRAEDTAVYYCARDFPVLGGSHFDFQHWGQGTLVTVSS
notes: HCDR2 PTM-removal mutant of PR004536; HCAb, human IgG1 Fc; also called 4536_M8A6
B14: PR004227 (antibody, V domains shown)
VH: EVQLVESGGGLVQPGGSLRLSCAASGFTFSSYWMHWVRQAPGKGLEWVSYINNDGSSTRYADSVKGRFTISRDNAKNTLYLQMNSLRAEDTAVYYCTEAPPYGNYERDYWGQGTLVTVSS
notes: anti-CLDN18.2 HCAb: VH fused to human IgG1 Fc, no light chain; also called R1029P(CG20)001B02
B15: PR000400 (antibody, human IgG1, kappa, V domains shown)
VH: QVQLQQPGAELVRPGASVKLSCKASGYTFTSYWINWVKQRPGQGLEWIGNIYPSDSYTNYNQKFKDKATLTVDKSSSTAYMQLSSPTSEDSAVYYCTRSWRGNSFDYWGQGTTLTVSS
VL: DIVMTQSPSSLTVTAGEKVTMSCKSSQSLLNSGNQKNYLTWYQQKPGQPPKLLIYWASTRESGVPDRFTGSGSGTDFTLTISSVQAEDLAVYYCQNDYSYPFTFGSGTKLEIKR
notes: also called IMAB362 analogue

Tests used:
human CLDN18.2 [1] = target: T1, human CLDN18.2 (human); assay: competition FACS on HEK293/hCLDN18.2 cells; competitor 200 nM biotinylated PR004549
T1 construct: the HEK293 line was made with a GenScript plasmid; also called hCLDN18.2
Procedure: (§1) This example is to study the binding of anti-human CLDN18.2 HCAb monoclonal antibodies to the epitope region of human CLDN18.2 antigen. Competitive binding experiments were performed at the cellular level using HEK293/hCLDN18.2 cells overexpressing human CLDN18.2. […] Then suspension of HEK293/hCLDN18.2 cells overexpressing human CLDN18.2 were adjusted to 3×10⁶ cells/mL, seeded 50 L/well. The cells were co-incubated at 4° C. for 2 h. The cells in each well were washed twice with 200 μL of pre-cooled FACS buffer (2% FBS in PBS) and centrifuged at 500 g at 4° C. for 5 min, and then the supernatant was discarded. […] The cells in each well were washed twice with 200 μL of pre-cooled FACS buffer (2% FBS in PBS) and centrifuged at 500 g at 4° C. for 5 min, and then the supernatant was discarded. Finally, the cells in each well were resuspended in 200 μL of pre-cooled FACS buffer, and the fluorescence signal values were read using a BD FACS CANTOII.

human CLDN18.2 [2] = target: T1, human CLDN18.2; assay: competition FACS on HEK293/hCLDN18.2 cells; competitor 10 nM biotinylated PR000400
Procedure: as §1

human CLDN18.2 [3] = target: T1, human CLDN18.2; assay: FACS on NUGC4_D8 cells
Procedure: (§2) The binding affinity of an antibody was detected by FACS using human CLDN18.1-expressing HEK293 cells, human CLDN18.2-expressing HEK293 cells, NUGC4_D8 cells and SNU601 cells endogenously expressing human CLDN18.2 (Cobioer, CBP60507). […] The cell density was adjusted to 10⁶ cells/mL, and 50 μL of the cell suspension was added to each well of a 96-well plate. Antibodies were diluted to different concentrations with FACS buffer, and 50 μL of the antibody dilution was added to each well of the 96-well plate. After 2 h of incubation at 4° C., the plate was washed twice with FACS buffer. […] After 1 h of incubation at 4° C., the plate was washed twice with FACS buffer. The cells were resuspended in fixative solution, and then the fluorescence of the cells was monitored using an FACS instrument (ACEA NovoCyte).

human CLDN18.2 [4] = target: T1, human CLDN18.2; assay: FACS on SNU601 cells
Procedure: as §2

human CLDN18.2 [5] = target: T1, human CLDN18.2; assay: FACS on HEK293/hCLDN18.2 cells
Procedure: as §2

human CLDN18.2 [6] = target: T1, human CLDN18.2; assay: FACS on NUGC4_D8 cells; remark: listed apart in the source
Procedure: as §2

[7] = target: T2, Biotinylated human CD3E&D (human, UniProt P07766 23-126; P04234 22-105, biotin label); assay: BLI (Octet), biotinylated CD3 on SA sensor, 1:1 global fit;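 also: antibodies applied as analyte in 2-fold serial dilutions, with a 180 s association phase followed by a 300 s dissociation phase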
T2 construct: also called CDD-H82W6
T2 sequence (P07766 23-126, chain 1 of 2): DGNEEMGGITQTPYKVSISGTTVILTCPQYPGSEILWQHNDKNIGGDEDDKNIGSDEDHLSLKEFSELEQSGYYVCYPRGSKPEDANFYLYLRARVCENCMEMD
T2 sequence (P04234 22-105, chain 2 of 2): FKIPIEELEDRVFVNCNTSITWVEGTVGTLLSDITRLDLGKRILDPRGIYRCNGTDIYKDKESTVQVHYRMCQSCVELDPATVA

human CLDN18.2 [8] = target: T1, human CLDN18.2; assay: competition FACS on HEK293/hCLDN18.2 cells; competitor 10 nM biotinylated PR000400; remark: listed apart in the source
Procedure: This example is to study the binding of anti-human CLDN18.2 bispecific antibodies to the epitope region of a human CLDN18.2 antigen. Competitive binding experiments were performed at the cellular level using human CLDN18.2-overexpressing HEK293/hCLDN18.2 cells. […] The mixture was well mixed and incubated at 4° C. for 30 min. 25 μL of the corresponding serially diluted non-biotinylated anti-human CLDN18.2 antibody was added. The mixture was well mixed and incubated at 4° C. for 1 h. The cells in each well were washed twice with 200 μL of pre-cooled FACS buffer (2% BSA in DPBS) and centrifuged at 500 g at 4° C. for 5 min, and then the supernatant was discarded. A fluorescent secondary antibody (Jackson ImmunoResearch, 016-540-084, 1:500) was added. The mixture was incubated at 4° C. in the absence of light for 1 h. The cells in each well were washed twice with 200 μL of pre-cooled FACS buffer (2% BSA in DPBS) and centrifuged at 500 g at 4° C. for 5 min, and then the supernatant was discarded. Finally, the cells in each well were resuspended in 200 μL of pre-cooled FACS buffer, and the fluorescence signal values were read using a ACEA_NovoCyte.

human CLDN18.2 [9] = target: T1, human CLDN18.2; assay: competition FACS on HEK293/hCLDN18.2 cells; competitor 200 nM biotinylated PR004549; remark: listed apart in the source

Binder | IC50 (human CLDN18.2 [1]) [nM] | Maximum inhibition rate (%) (human CLDN18.2 [1]) | IC50 (human CLDN18.2 [2]) [nM] | Maximum inhibition rate (%) (human CLDN18.2 [2]) | EC50 (human CLDN18.2 [5]) [nM] | Emax (MFI) (human CLDN18.2 [5]) | EC50 (human CLDN18.2 [6]) [nM] | Emax (MFI) (human CLDN18.2 [6]) | also measured
B1 | 13.8 | 93.2 | 16.7 | 98 |  |  |  |  | EC50 (human CLDN18.2 [3]): 12 nM; Emax (MFI) (human CLDN18.2 [3]): 219000 MFI
B2 | 23.2 | 93.7 | 25.5 | 98.6 |  |  |  |  | EC50 (human CLDN18.2 [4]): 11.9 nM; Emax (MFI) (human CLDN18.2 [4]): 11300 MFI; EC50 (human CLDN18.2 [3]): 25 nM; Emax (MFI) (human CLDN18.2 [3]): 183000 MFI
B3 |  |  |  |  | 14.4 | 1.37e+06 | 55.9 | 166000 | 
B4 | 31 | 94.2 | 35.4 | 98.5 |  |  |  |  | EC50 (human CLDN18.2 [4]): 12.8 nM; Emax (MFI) (human CLDN18.2 [4]): 18300 MFI; EC50 (human CLDN18.2 [3]): 21.8 nM; Emax (MFI) (human CLDN18.2 [3]): 265000 MFI
B5 |  |  |  |  | 11.3 | 1.48e+06 | 69.5 | 176000 | 
B6 |  |  |  |  | 13.3 | 1.47e+06 | 78.2 | 176000 | 
B7 |  |  |  |  | 11.7 | 1.3e+06 | 49.2 | 153000 | 
B8 |  |  |  |  | 13 | 1.31e+06 | 63.2 | 137000 | 
B9 |  |  |  |  | 12.8 | 1.31e+06 | 74.6 | 174000 | 
B10 | 50 | 89.2 | 64.1 | 95.8 |  |  |  |  | 
B11 |  |  |  |  |  |  |  |  | Kd [7]: 241 nM; koff [7]: 0.0518 s⁻¹; kon [7]: 215000 M⁻¹ s⁻¹
B12 | 74.1 | 90.1 | 103 | 98 |  |  |  |  | EC50 (human CLDN18.2 [4]): 52.7 nM; Emax (MFI) (human CLDN18.2 [4]): 15800 MFI
B13 |  |  |  |  | 35.3 | 1.27e+06 |  |  | 
B14 | 20.3 | 93.8 | 22.3 | 98.3 |  |  |  |  | EC50 (human CLDN18.2 [4]): 28.5 nM; Emax (MFI) (human CLDN18.2 [4]): 14800 MFI
B15 | 11.5 | 90.7 | 20.1 | 96.4 | 5.6 | 1.32e+06 | 56.4 | 58400 | IC50 (human CLDN18.2 [8]): 36.2 nM; Maximum inhibition rate (%) (human CLDN18.2 [8]): 92.7%; IC50 (human CLDN18.2 [9]): 25.2 nM; Maximum inhibition rate (%) (human CLDN18.2 [9]): 52.3%; EC50 (human CLDN18.2 [3]): 17 nM; Emax (MFI) (human CLDN18.2 [3]): 101000 MFI
